# Values of other authors as cited in publication PMC7226344.
# How the values were obtained:
# Cav3.2 (Homo sapiens) = Cav3.2 (Homo sapiens) (UniProt O95180)
# [1] = target: Cav3.1 (Rattus norvegicus) (UniProt O54898)
# Chain of UniProt O54898 (O54898 whole entry): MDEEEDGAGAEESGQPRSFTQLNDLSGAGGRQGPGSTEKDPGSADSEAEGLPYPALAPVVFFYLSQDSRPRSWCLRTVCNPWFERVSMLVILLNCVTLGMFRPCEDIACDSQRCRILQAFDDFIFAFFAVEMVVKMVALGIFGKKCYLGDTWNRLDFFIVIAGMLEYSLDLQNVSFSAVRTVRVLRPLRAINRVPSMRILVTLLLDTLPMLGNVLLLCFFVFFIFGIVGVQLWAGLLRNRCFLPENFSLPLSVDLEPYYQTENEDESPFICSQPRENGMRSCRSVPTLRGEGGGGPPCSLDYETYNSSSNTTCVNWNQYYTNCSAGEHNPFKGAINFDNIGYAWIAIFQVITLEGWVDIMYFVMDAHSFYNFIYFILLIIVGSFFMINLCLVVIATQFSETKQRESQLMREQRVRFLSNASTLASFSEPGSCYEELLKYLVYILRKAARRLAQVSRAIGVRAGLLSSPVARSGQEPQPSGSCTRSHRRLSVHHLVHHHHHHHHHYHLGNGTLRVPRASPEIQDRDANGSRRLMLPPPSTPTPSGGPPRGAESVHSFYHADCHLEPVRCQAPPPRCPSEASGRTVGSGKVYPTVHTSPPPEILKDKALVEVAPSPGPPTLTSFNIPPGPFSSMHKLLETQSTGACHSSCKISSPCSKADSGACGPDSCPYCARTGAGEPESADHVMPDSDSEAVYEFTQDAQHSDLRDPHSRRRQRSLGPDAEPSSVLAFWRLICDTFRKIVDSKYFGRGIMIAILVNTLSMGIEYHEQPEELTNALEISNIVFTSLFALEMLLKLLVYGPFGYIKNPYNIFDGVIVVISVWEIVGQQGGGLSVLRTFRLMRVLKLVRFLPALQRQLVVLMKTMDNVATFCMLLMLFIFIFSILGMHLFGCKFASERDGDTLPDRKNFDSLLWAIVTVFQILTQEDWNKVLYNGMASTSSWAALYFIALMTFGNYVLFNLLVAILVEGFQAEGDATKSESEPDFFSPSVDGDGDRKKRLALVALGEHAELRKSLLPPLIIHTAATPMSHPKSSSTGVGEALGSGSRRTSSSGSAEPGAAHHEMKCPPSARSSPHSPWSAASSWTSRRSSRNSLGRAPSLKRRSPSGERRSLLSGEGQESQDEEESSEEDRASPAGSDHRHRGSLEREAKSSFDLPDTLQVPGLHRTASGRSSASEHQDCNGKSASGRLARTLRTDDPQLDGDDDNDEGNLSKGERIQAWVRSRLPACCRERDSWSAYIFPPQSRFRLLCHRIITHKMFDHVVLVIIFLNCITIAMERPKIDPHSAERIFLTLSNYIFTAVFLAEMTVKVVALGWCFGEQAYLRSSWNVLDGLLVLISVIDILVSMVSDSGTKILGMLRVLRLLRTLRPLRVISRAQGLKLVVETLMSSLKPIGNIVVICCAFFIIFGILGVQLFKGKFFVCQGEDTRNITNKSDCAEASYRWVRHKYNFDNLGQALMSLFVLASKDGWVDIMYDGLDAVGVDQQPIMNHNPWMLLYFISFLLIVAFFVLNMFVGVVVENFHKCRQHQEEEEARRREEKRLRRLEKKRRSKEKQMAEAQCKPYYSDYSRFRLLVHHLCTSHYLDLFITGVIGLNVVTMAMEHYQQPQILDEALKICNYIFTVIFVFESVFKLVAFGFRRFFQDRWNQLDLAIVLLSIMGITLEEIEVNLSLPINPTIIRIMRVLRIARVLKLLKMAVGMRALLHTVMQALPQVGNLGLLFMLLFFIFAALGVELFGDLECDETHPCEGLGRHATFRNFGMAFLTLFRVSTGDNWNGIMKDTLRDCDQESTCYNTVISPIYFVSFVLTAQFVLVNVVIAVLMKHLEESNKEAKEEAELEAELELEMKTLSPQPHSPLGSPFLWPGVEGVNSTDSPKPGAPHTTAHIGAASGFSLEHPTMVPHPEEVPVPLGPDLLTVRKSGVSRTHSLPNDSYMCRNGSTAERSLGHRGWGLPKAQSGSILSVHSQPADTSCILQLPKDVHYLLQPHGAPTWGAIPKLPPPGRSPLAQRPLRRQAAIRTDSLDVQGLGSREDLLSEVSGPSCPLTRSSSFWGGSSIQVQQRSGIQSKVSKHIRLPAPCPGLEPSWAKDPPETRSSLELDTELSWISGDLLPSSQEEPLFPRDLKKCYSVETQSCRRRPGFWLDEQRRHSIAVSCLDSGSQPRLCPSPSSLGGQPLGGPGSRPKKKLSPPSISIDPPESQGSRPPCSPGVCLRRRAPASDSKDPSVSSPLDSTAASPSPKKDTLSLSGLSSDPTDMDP
# Chain of UniProt O95180 (O95180 whole entry): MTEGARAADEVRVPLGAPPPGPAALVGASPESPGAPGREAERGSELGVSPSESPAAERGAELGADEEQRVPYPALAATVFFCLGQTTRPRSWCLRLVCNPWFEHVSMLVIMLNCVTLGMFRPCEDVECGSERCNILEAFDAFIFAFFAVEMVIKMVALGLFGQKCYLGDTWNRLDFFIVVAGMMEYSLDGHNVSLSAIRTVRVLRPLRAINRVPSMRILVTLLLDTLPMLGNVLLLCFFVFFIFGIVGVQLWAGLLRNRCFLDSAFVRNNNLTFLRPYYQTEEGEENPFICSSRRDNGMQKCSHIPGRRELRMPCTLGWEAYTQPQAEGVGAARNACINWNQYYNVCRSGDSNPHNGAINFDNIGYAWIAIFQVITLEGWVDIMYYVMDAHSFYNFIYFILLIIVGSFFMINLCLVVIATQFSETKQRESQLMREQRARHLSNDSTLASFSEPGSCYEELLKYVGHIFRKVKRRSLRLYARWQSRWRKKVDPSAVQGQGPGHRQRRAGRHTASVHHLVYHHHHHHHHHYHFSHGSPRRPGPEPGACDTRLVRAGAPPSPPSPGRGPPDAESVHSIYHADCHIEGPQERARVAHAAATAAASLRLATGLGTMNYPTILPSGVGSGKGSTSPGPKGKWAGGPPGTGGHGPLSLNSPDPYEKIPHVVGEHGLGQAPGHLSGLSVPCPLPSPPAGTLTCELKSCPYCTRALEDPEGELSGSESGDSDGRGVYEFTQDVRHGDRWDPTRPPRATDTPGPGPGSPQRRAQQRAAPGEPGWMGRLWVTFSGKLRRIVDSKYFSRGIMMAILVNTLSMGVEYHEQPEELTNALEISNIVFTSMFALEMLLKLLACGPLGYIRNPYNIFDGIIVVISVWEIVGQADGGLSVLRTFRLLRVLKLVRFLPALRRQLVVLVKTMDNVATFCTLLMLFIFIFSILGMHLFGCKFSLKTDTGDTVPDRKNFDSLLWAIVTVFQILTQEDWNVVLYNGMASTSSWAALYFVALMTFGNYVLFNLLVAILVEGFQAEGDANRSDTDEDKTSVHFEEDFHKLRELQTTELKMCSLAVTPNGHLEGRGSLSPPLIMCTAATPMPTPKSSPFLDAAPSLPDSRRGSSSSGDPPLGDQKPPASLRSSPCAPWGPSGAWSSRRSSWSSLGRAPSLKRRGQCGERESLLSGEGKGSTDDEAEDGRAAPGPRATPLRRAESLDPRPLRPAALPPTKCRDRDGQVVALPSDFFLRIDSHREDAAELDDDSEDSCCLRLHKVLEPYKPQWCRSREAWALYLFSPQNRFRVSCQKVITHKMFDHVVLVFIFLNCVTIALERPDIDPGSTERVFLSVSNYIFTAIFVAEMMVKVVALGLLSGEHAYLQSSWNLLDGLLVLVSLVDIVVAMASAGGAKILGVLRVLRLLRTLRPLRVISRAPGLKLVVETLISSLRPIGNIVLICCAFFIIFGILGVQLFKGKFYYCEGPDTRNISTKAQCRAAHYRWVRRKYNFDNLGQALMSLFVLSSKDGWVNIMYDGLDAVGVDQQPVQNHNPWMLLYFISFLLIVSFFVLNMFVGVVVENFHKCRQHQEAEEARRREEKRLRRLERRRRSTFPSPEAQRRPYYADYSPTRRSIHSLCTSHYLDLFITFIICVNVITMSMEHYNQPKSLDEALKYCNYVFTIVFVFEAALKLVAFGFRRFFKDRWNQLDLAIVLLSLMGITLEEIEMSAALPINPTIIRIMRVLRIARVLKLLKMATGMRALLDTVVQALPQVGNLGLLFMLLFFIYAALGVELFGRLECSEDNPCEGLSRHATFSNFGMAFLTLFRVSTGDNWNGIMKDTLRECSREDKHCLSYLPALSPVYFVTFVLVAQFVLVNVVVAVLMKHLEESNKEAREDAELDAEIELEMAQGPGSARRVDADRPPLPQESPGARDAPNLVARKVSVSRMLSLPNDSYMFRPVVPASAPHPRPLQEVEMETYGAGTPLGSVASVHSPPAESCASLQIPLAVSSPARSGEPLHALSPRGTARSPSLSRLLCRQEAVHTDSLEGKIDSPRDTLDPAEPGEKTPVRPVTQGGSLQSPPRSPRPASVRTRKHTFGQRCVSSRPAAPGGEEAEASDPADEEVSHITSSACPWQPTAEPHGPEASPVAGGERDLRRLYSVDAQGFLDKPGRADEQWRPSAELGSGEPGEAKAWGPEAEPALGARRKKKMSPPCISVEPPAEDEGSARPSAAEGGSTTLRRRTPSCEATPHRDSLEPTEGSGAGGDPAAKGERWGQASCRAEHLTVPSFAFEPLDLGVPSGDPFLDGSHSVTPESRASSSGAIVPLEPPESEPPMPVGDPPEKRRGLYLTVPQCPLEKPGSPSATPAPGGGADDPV
substance,measurement,setting,value
kurtoxin (from UniProt P58910),Kd,Cav3.2 (Homo sapiens),61 nM
same,Kd,[1],15 nM
